In this assay the target is T1, transporter associated with antigen processing (TAP), heterodimer of TAP1 and TAP2 (human, UniProt Q03518 1-748; Q03519 1-686).
T1 construct: TAP1, human; TMD0 is in the construct (no density seen for it); TAP2, human; model holds residues 130-681; also called human TAP; source: lysed cells incubated with purified ICP47, solubilised in DDM, purified (IgG Sepharose, Superose 6); not shown: Protein A, C-terminal, cleaved
T1 sequence 1: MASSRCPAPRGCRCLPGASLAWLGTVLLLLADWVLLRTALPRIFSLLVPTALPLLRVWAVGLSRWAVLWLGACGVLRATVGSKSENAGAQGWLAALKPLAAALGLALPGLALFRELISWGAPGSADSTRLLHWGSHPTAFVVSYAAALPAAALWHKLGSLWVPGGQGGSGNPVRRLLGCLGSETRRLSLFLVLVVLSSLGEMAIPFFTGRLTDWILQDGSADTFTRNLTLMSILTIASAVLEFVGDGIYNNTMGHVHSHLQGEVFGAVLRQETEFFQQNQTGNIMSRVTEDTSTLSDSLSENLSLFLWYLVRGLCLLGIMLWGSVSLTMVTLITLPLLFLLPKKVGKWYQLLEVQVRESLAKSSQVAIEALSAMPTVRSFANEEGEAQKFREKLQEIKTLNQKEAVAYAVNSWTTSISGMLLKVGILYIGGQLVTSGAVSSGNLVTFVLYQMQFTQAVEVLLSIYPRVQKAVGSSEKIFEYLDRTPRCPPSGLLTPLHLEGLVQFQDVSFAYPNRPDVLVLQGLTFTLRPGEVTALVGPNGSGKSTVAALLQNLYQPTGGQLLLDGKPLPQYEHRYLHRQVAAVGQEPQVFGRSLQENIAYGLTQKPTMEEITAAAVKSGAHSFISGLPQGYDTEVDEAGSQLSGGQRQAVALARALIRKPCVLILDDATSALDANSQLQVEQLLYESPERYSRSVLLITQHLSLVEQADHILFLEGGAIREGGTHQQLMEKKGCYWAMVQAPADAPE
T1 sequence 2: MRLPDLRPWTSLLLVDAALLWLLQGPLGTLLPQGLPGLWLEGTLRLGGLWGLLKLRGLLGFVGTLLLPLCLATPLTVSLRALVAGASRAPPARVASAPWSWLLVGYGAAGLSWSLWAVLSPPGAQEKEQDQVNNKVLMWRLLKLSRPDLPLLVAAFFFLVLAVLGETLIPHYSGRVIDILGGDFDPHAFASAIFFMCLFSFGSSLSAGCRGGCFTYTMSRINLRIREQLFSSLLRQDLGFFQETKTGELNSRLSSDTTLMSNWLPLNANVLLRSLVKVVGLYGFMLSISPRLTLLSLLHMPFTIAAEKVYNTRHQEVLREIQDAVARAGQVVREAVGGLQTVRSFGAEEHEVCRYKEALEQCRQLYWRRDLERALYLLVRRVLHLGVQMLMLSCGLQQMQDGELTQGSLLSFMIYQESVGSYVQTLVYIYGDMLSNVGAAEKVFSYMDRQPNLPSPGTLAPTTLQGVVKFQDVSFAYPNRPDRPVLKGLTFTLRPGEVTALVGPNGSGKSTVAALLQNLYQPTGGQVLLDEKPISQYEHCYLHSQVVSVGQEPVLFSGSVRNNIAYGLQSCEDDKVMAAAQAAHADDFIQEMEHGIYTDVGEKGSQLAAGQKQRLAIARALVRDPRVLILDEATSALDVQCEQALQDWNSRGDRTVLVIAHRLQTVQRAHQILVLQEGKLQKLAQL
The assay can be described thus: cryo-EM structure; purified TAP/ICP47 complex (2 mg/ml) in 20 mM Hepes pH 7.4, 150 mM NaCl, 2 mM TCEP, 1 mM DDM, 1 mM C12E8; complex formed by incubating lysed Pichia cells co-expressing TAP1 and TAP2 with purified ICP47; 4.0 Å. Particulars: both partners purified.

B1: ICP47 of herpes simplex virus 1 (natural protein)
chain: MSWALEMADTFLDTMRVGPRTYADVRDEINKRGREDREAARTAVHDPERPLLRSPGLLPEIAPNASLGVAHRRTGGTVTDSPRNPVTR
notes: ICP47, HSV-1; the N-terminal 55 residues are ordered and the C-terminal 33 residues have no density (88 residues together); also called HSV-1 ICP47; source: E. coli, purified via the GST tag
As for B1, the binding result is recorded as “binds”.

The values are drawn from article PMC5199193, “Structure of the transporter associated with antigen processing trapped by herpes simplex virus” (eLife, 2016).
